One molecule from publication PMC11638070 can be followed below.

In this assay the target is mitochondrial heat shock protein 60, wild type (mtHsp60) (human), P10809. Kind of assay: SEC; analytical SEC of each protein alone (mtHsp60 samples 17 µM monomer); Superdex 200 Increase 3.2/300, room temperature, 20 mM HEPES pH 7.5, 100 mM KCl, 10 mM MgCl2. Conditions: remark: other sources report otherwise. On the technique in general: In gel filtration, larger molecules generally elute earlier.

In general, stoichiometry N refers to the number of molecules, sites or subunits per partner or assembly.

B1: mitochondrial heat shock protein 60, wild type (mtHsp60), P10809 27-573 (natural protein)
chain: AKDVKFGADARALMLQGVDLLADAVAVTMGPKGRTVIIEQSWGSPKVTKDGVTVAKSIDLKDKYKNIGAKLVQDVANNTNEEAGDGTTTATVLARSIAKEGFEKISKGANPVEIRRGVMLAVDAVIAELKKQSKPVTTPEEIAQVATISANGDKEIGNIISDAMKKVGRKGVITVKDGKTLNDELEIIEGMKFDRGYISPYFINTSKGQKCEFQDAYVLLSEKKISSIQSIVPALEIANAHRKPLVIIAEDVDGEALSTLVLNRLKVGLQVVAVKAPGFGDNRKNQLKDMAIATGGAVFGEEGLTLNLEDVQPHDLGKVGEVIVTKDDAMLLKGKGDKAQIEKRIQEIIEQLDVTTSEYEKEKLNERLAKLSDGVAVLKVGGTSDVEVNEKKDRVTDALNATRAAVEEGIVLGGGCALLRCIPALDSLTPANEDQKIGIEIIKRTLKIPAMTIAKNAGVEGSLIVEKIMQSSSEVGYDAMAGDFVNMVEKGIIDPTKVVRTALLDAAGVASLLTTAEVVVTEIPKEEKDPGMGAMGGMGGGMGGGMF
B1: the stoichiometry N amounted to 7.
